In patent US20190375835A1:

Experiments:
macrophages (FcR) = test: cell-based or functional assay
soluble TNF-alpha = soluble TNF-alpha (UniProt P01375); test: cell-based or functional assay
soluble TNF-alpha, sequence (P01375 77-233 limits assumed): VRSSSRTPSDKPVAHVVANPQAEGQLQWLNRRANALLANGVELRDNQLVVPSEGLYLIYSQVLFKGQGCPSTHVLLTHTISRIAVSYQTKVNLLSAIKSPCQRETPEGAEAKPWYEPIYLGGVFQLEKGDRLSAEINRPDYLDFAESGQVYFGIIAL

phagocytosis (MFI 37°C - MFI 4°C) in the presence of IVIg 1 mg/ml (macrophages (FcR))	phagocytosis value (MFI 37°C - MFI 4°C, arbitrary unit) (soluble TNF-alpha)	Substance
6.72 MFI	12.5 MFI	Humira antibody from Abbott (commercial adalimumab)
13.3 MFI	15 MFI	transgenically produced adalimumab antibody (purified from the milk of transgenic goats, glycosylated)
